Data reported in US20190375795A1 (CGTX PEPTIDE DEVELOPMENT, published 2019).

Key:
[1] = target: human Kv1.3 (hKv1.3) channel (human, UniProt P22001 1-575); assay: cell-based or functional assay
Kv1.5 = target: T1, Kv1.5 (UniProt P22460 1-613); assay: planar patch clamp (Port-A-Patch), channel expressed in cells
T1 construct: whole, on cells
T1 sequence (P22460 whole entry): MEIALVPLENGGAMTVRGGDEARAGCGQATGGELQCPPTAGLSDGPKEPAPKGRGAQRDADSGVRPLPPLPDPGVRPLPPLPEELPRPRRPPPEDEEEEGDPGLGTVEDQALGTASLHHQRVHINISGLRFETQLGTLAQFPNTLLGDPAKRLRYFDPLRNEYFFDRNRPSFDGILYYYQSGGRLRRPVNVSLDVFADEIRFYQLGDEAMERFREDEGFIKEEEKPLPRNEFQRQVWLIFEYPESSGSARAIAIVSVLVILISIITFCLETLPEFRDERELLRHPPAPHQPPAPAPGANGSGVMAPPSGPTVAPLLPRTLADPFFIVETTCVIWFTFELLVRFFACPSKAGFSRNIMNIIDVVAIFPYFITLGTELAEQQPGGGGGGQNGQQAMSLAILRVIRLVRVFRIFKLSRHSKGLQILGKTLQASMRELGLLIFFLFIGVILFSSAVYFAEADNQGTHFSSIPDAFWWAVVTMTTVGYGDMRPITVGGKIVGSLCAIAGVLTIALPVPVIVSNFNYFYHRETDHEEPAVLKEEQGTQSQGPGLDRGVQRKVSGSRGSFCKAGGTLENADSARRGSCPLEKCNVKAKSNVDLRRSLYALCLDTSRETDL

Sequence of human Kv1.3 (hKv1.3) channel (P22001 whole entry): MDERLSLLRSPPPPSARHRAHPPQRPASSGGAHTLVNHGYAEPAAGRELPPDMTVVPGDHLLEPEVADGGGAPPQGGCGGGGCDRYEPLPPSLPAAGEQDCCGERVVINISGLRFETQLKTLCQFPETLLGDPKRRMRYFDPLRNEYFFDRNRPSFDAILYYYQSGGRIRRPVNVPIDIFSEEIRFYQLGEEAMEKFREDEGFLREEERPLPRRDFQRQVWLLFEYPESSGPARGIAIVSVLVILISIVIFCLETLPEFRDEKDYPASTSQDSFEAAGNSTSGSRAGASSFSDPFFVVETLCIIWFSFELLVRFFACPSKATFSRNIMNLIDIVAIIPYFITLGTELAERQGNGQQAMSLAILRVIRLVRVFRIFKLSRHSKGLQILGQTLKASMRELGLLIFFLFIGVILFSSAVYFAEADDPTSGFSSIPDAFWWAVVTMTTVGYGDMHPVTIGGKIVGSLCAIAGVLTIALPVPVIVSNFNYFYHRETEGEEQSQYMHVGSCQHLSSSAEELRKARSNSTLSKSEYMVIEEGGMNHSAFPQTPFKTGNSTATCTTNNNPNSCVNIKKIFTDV

ASCRTPKDCADPCRKETGCPYGKCMNRKCKCNRC (also called toxin HsTx 1) [HsTx 1]
selectivity for Kv1.3 vs. Kv1.1 (patch clamp IC50s) [1]: ~450 fold
binding result (Kv1.5): no binding
